Source: publication PMC9938897
Blank lines part the entries; values can stand above or below the substance they belong to.

How the values were obtained:
[1] = target: CvkR R42E (Anabaena (Nostoc) sp. PCC 7120); experiment: SEC; analytical gel filtration, Superdex 75 10/300 GL, 10 mM Tris-HCl pH 8.8, 100 mM NaCl, 2 mM beta-mercaptoethanol; ~500 uL untagged protein at ~0.6 mg/mL; calibrated with LMW standards; self-association (dimer)
[2] = target: CvkR (Alr3614), MerR-type transcriptional regulator of the Anabaena sp. PCC 7120 CAST system, 150-residue form CvkR-S (Anabaena (Nostoc) sp. PCC 7120); experiment: as above
[3] = target: CvkR (Alr3614) (Anabaena sp. PCC 7120) (UniProt A0ACD6B984); experiment: DNase I footprinting; conditions: EMSA: 10 mM Tris-HCl pH 8.0, 25 mM MgCl2, 50 mM NaCl, 1 mM DTT, 1 mM EDTA, 50 ug/mL poly(dI-dC), 0.01% NP-40, 10% glycerol, 2 nM probe, 25 C 30 min …
Chain of CvkR (Alr3614) (Anabaena sp. PCC 7120) (A0ACD6B984 entry or part of it): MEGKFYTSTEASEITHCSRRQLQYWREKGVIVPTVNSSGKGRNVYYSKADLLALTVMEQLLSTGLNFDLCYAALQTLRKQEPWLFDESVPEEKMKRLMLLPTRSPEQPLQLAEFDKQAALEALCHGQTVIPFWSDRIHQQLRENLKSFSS

[4] = target: CvkRmut (R19A-R20A-Q23A-K40A-R42A-N66A) (Anabaena (Nostoc) sp. PCC 7120); experiment: SEC; analytical gel filtration, Superdex 75 10/300 GL, 10 mM Tris-HCl pH 8.8, 100 mM NaCl, 2 mM beta-mercaptoethanol; ~500 uL untagged protein at ~0.6 mg/mL; calibrated with LMW standards; self-association (dimer)

stoichiometry N [1]: 2
Substance: CvkR R42E (natural protein)

stoichiometry N [2]: 2
Substance: CvkR (Alr3614), MerR-type transcriptional regulator of the Anabaena sp. PCC 7120 CAST system, 150-residue form CvkR-S (natural protein)

Substance: AACTCCTTTCTCTCGCCAATACTGCAACTGGCGGCGAGAGCAATGAGTAATTTCTGATGCTTCTGTGCTTGTGTAGAACTTTCCTTCCATAAGAAACATCCTATAGAAGCATCTTCTAAAACACATTAGTGCTTTGTATAACATTATGTGTTTTGTATGGTATTTTATTTTTATGAGCCAAAAAACTATTCAATGTCGCTTAATTGCCAGTGAATCTACCCGCCAAAAACTCTGGAAGTTAATGGCAGAATCGAACACACCTCTAATTAACGAACTGCTTCAGCAGC (double strand) [Pcas12k footprint probe]
binding [3]: binds

stoichiometry N [4]: 2
Substance: CvkRmut (R19A-R20A-Q23A-K40A-R42A-N66A) (natural protein)
